Assay results: paper PMC3458557

T1: GST-Rho-N-Strep (RHON1 C-terminal Rho-N domain) (Arabidopsis thaliana, UniProt Q94K75 362-401)
T1 chain: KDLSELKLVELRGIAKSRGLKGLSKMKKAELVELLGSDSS


Biological target: T1, GST-Rho-N-Strep (RHON1 C-terminal Rho-N …)
Test: EMSA

| Binder | binding result |
| --- | --- |
| petB 5' UTR (ssRNA) RNA: GGUAGUUCGACCGCGAAAUUUUUUUCUGCAUUGUAUAUUUCCGGAAUAUGAGUGUGUGACUUGUUAGAAU | binds |
| 23S-4.5Sa dsRNA (dsRNA) RNA 1: UUCCUCUAUUUGUUCGAUAGGGGAGAUUCCGACUUCCCCAGAGCCUCCGGUAGCACAGCCGAGACAGCAACGGGUUCUCCGCCCCUGCGGGGAUG RNA 2: CAUCCCCGCAGGGGCGGAGAACCCGUUGCUGUCUCGGCUGUGCUACCGGAGGCUCUGGGGAAGUCGGAAUCUCCCCUAUCGAACAAAUAGAGGAA | no binding |
| petB 3' UTR (ssRNA) RNA: GACUGAAGCUAACUUUGGUUGGUUAAUCCGAUCAGUUCAUCGAUGGUCGGCAAGUAUGAUGGUCCUAAUG | binds |
| UUCUAGUACAACUAUUGCAGUAGAAUGACAA (ssRNA) [petA 5' UTR 31-mer] | no binding |
